According to US20250090676A1 (SUTRO BIOPHARMA, published 2025):

Target: T1, human FOLR1-HIS (human, UniProt P15328 25-233)
T1 construct: Analyte of the Biacore assay; also called FolRα-ECD; extracellular domain of FOLR1; not shown: HIS tag
Assay: SPR (Biacore), antibody captured on anti-Fc, human FOLR1-HIS analyte, 25 C

T1 sequence (P15328 25-233 limits assumed): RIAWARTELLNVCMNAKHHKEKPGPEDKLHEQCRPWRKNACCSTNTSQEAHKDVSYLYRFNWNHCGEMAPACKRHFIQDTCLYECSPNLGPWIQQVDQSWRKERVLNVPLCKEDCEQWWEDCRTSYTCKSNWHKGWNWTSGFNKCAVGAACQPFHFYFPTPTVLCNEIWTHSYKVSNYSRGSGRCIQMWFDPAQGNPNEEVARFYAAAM

Binder | Kd [nM] | koff [s⁻¹] | kon [M⁻¹ s⁻¹]
SRP1848-F06 (antibody, V domains shown, IgG with common trastuzumab LC, cell-free expressed, HIS- and FLAG-tagged; also called Antibody 41) VH: EVQLVESGGGLVQPGGSLRLSCAASGFNISLSYIHWVRQAPGKGLEWVGGISPIDGNTDYADSVKGRFTISADTSKNTAYLQMNSLRAEDTAVYYCARGFWAWRSGYGYYLDYWGQGTLVTVSS VL: not shown | 17 | 0.00775 | 456000
SRP1848-E07 (antibody, V domains shown, IgG with common trastuzumab LC, cell-free expressed, HIS- and FLAG-tagged; also called Antibody 36) VH: EVQLVESGGGLVQPGGSLRLSCAASGFNIRKSSIHWVRQAPGKGLEWVGEIFPYDGSTDYADNVKGRFTISADTSKNTAYLQMNSLRAEDTAVYYCARGAWSWRSGYGYYIDYWGQGTLVTVSS VL: not shown | 1.91 | 0.0024 | 1.25e+06
SRP1848-E03 (antibody, V domains shown, IgG with common trastuzumab LC, cell-free expressed, HIS- and FLAG-tagged; also called Antibody 33) VH: EVQLVESGGGLAQPGGSLRLSCAASGFNIGNYYIHWVRQAPGKGLEWVGGITPRDGFTDYADSVKGRFTISADTSKNTAYLQVNSLRAEDTAVYYCARGSWSWPAGHSYYLDYWGQGTLVTVSS VL: not shown | 2.67 | 0.00183 | 688000
SRP1848-D03 (antibody, V domains shown, IgG with common trastuzumab LC, cell-free expressed, HIS- and FLAG-tagged; also called Antibody 25) VH: EVQLVESGGGVVQPGGSLRLSCAASGFNIRYFSIHWVRQAPGKGLEWVGDIFPNDGSTDYADSVKGRFTISADTSKNTAYLQMNSLRAEETAVYYCARGHWSWPSGYWYYLDYWGQGTLVTVSS VL: not shown | 5.19 |  | 
SRP1848-G04 (antibody, V domains shown, IgG with common trastuzumab LC, cell-free expressed, HIS- and FLAG-tagged; also called Antibody 49) VH: EVQLVESGGGLVQPGGSLRLSCAASGFNIHSTDIHWVRQAPGKGLEWVAYITPAGGATFYADSVKGRFTISADTSKNTAYLQMNSLRAEDTAVYYCARYPYWFAGYMDYWGQGTLVTVSS VL: not shown | 6.4 | 0.00379 | 591000
SRP1848-G07 (antibody, V domains shown, IgG with common trastuzumab LC, cell-free expressed, HIS- and FLAG-tagged; also called Antibody 51) VH: EVQLVESGGGLVQPGGSLRLSCAASGFNIHSTDIHWVRQAPGKGLEWVAYITPAGGATWYADSVKGRFTISADTSKNTAYLQMNSLRAEDTAVYYCARYPFWFAGYMDYWGQGTLVTVSS VL: not shown | 7.45 | 0.00451 | 605000
SRP1848-G11 (antibody, V domains shown, IgG with common trastuzumab LC, cell-free expressed, HIS- and FLAG-tagged; also called Antibody 54) VH: EVQLVESGGGLVQPGGSLRLSCAASGFNISSTDIHWVRQAPGKGLEWVAYITPAGGATWYADSVKGRFTISADTSKNTAYLQMNSLRAEDTAVYYCARYPYWFSGYMDYWGQGTLVTVSS VL: not shown | 9.14 | 0.00637 | 696000

Continued by falling Kd, values first:

Kd [nM] | koff [s⁻¹] | kon [M⁻¹ s⁻¹] | Binder
7.56 | 0.00646 | 856000 | SRP1848-G09 (antibody, V domains shown, IgG with common trastuzumab LC, cell-free expressed, HIS- and FLAG-tagged; also called Antibody 52) VH: EVQLVESGGGLVQPGGSLRLSCAASGFNIRGTDIHWVRQAPGKGLEWVAYITPAGGATFYADSVKGRFTISADTSKNTAYLQMNSLRAEDTAVYYCARHEYWFSGYMDYWGQGTLVTVSS VL: not shown
6.7 | 0.00381 | 569000 | SRP1848-G06 (antibody, V domains shown, IgG with common trastuzumab LC, cell-free expressed, HIS- and FLAG-tagged; also called Antibody 50) VH: EVQLVESGGGLVQPGGSLRLSCAASGFNIRSTDIHWVRQAPGKGLEWVAYITPAGGATYYADNVKGRFTISADTSKNTAYLQMNSLRAEDTAVYYCARQPYWFAGYMDYWGQGTLVTVSS VL: not shown
4.55 | 0.00345 | 758000 | SRP1848-G10 (antibody, V domains shown, IgG with common trastuzumab LC, cell-free expressed, HIS- and FLAG-tagged; also called Antibody 53) VH: EVQLVESGGGLVQPGSSLRLSCAASGFNIRSTDIHWVRQAPGKGLEWVAYITPAGGATYYADSVKGRFTISADTSKNTAYLQMNSLRAEDTAVYYCARYPYWFAGYIDYWGQGTLVTVSS VL: not shown
3.51 | 0.00251 | 716000 | SRP1848-E05 (antibody, V domains shown, IgG with common trastuzumab LC, cell-free expressed, HIS- and FLAG-tagged; also called Antibody 34) VH: EVQLVESGGGLVQPGGSLRVSCAASGFNIGVYYIHWVRQAPGKGLEWVGGITPNDGYTDYADSVKGRFTISADTSKNTAYLQMNSLRAEDTAVYYCARGFWAWRSGYGYYLDYWGQGTLVTVSS VL: not shown
2.4 | 0.00157 | 656000 | SRP1848-F05 (antibody, V domains shown, IgG with common trastuzumab LC, cell-free expressed, HIS- and FLAG-tagged; also called Antibody 40) VH: EVQLVESGGGLVQPGGSLRLSCAASGFNISKSSIHWVRQAPGKGLEWVGEIYPNDGSTDYADSVKGRFTISADTSKNTAYLQMNSLRAEDTAVYYCARGSWAWRSGYSYFLDYWGQGTLVTVSS VL: not shown
2.11 |  |  | SRP1848-H01 (antibody, V domains shown, IgG with common trastuzumab LC, cell-free expressed, HIS- and FLAG-tagged; also called Antibody 55) VH: EVQLVESGGGLVQPGGSLRLSCAASGFNIRTQSIHWVRQAPGKGLEWIGDIFPIDGITDYADSVKGRFTISADTSKNTAYLQMNSLRAEDTAVYYCARGSWSWPSGMDYYLDYWGQGTLVTVSS VL: not shown
1.63 |  |  | SRP1848-E06 (antibody, V domains shown, IgG with common trastuzumab LC, cell-free expressed, HIS- and FLAG-tagged; also called Antibody 35) VH: EVQLVESGGGLVQPSGSLRLSCAASGFNINRYYIHWVRQAPGKGLEWVGGITPNDGYTDYADSVEGRFTTSADTSKNTAYLQMNSLRAEDTAVYYCARGTWSWPSGHSYYLDYWGQGTLVTVSS VL: not shown
